We go through one molecule from patent publication US20200129532A1 (SALK INSTITUTE FOR BIOLOGICAL STUDIES, published 2020).

The experiment deals with endogenous ARID2 (293T cells) (UniProt Q68CP9 2-1835, limits assumed). As to the kind of experiment: immunoprecipitation of endogenous BAF/PBAF components in 293T cells.
endogenous ARID2 (293T cells), sequence (Q68CP9 2-1835 limits assumed): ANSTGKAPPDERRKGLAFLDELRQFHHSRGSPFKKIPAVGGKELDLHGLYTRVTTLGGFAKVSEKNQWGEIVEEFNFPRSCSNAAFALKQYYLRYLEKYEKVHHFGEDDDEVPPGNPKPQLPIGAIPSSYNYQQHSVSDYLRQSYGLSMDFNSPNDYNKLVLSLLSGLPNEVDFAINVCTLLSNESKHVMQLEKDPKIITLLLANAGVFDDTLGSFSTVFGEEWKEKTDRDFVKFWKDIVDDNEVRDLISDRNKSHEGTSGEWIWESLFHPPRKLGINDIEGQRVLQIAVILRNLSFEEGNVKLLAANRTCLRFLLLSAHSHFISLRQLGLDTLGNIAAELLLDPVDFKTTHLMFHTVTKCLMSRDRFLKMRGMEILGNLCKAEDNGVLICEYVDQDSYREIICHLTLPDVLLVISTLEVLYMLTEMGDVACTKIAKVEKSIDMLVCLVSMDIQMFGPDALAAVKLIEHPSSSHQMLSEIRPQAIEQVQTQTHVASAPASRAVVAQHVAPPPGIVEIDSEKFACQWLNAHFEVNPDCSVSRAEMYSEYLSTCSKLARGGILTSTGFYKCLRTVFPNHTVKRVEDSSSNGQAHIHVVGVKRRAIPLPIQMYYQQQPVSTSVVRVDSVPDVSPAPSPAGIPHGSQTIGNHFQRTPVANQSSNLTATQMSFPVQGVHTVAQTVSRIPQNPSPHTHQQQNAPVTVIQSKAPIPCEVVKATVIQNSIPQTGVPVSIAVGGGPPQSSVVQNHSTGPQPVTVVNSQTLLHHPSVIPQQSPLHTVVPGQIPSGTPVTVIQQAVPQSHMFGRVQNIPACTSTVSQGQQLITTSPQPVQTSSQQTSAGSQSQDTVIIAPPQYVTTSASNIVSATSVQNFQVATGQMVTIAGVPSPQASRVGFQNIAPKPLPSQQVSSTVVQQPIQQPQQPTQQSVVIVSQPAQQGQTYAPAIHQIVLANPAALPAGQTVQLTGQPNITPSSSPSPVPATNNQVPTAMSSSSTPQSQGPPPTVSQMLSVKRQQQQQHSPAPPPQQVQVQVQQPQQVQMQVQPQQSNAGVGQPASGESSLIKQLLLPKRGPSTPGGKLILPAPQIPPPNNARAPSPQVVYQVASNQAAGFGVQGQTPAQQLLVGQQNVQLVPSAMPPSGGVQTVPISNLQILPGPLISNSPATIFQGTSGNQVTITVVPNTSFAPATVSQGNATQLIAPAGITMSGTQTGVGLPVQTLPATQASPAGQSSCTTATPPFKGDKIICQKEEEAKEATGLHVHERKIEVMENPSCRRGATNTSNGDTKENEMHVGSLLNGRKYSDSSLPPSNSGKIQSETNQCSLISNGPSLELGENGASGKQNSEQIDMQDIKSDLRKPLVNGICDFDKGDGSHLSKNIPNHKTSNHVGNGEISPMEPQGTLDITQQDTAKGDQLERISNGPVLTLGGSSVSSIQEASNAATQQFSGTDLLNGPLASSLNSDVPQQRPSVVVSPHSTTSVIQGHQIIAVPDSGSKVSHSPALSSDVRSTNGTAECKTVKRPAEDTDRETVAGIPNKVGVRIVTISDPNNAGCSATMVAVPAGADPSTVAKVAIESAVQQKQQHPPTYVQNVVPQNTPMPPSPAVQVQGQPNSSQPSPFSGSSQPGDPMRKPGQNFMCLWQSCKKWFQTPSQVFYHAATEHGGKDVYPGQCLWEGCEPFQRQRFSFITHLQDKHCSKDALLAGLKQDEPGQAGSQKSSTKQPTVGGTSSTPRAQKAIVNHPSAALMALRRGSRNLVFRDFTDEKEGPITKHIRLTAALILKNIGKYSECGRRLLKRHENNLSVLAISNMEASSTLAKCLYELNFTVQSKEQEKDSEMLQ

Description: For other immunoprecipitations, primary antibodies were incubated with lysates for 2 hr followed by Protein A magnetic beads (Life Technologies, 10001D).

B1: endogenous bromodomain-containing protein 9 (BRD9) (other, human, UniProt Q9H8M2 1-597, looked up)
chain: MGKKHKKHKAEWRSSYEDYADKPLEKPLKLVLKVGGSEVTELSGSGHDSSYYDDRSDHERERHKEKKKKKKKKSEKEKHLDDEERRKRKEEKKRKREREHCDTEGEADDFDPGKKVEVEPPPDRPVRACRTQPAENESTPIQQLLEHFLRQLQRKDPHGFFAFPVTDAIAPGYSMIIKHPMDFGTMKDKIVANEYKSVTEFKADFKLMCDNAMTYNRPDTVYYKLAKKILHAGFKMMSKQAALLGNEDTAVEEPVPEVVPVQVETAKKSKKPSREVISCMFEPEGNACSLTDSTAEEHVLALVEHAADEARDRINRFLPGGKMGYLKRNGDGSLLYSVVNTAEPDADEEETHPVDLSSLSSKLLPGFTTLGFKDERRNKVTFLSSATTALSMQNNSVFGDLKSDEMELLYSAYGDETGVQCALSLQEFVKDAGSYSKKVVDDLLDQITGGDHSRTLFQLKQRRNVPMKPPDEAKVGDTLGDSSSSVLEFMSMKSYPDVSVDISMLSSLGKVKKELDPDDSHLNLDETTKLLQDLHEAQAERGGSRPSSNLSSLSNASERDQHHLGSPSRLSVGEQPDVTHDPYEFLQSPEPAASAKT
notes: Endogenous protein in cell lysates; also called bromodomain-containing factor 9
For the molecule B1, the binding result is reported as “no binding”.
